Experimental findings from the nanobody polyreactivity screen of Harvey et al. (2022) are described below.

This series can be described thus: yeast display, Sf9 membrane polyspecificity reagent, FACS + sequencing; frameworks hold sequencing errors. The gist of the method: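 In a synthetic yeast display library (Saccharomyces cerevisiae BJ5465), nanobody expression was induced with galactose for 36–48 hours. FACS gates were set low and high (top ~1%) using anti-HA fluorescence for expression and streptavidin fluorescence for binding of the Sf9 membrane reagent. Each polyreactivity label is drawn from the gate of origin.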
As for “QVQLLESGGGLVQAGGSLRLSCAASGIIFLDNAMGWYRQAPGKERELVADITSSGGSTYYADSVKGRFTISRDNAKNTVSLQMNSLKPEDTAVYYCAATRPSYNDAESDYWGQGTQVTVSS”, the “polyreactivity (PSR sort gate)” value is “low polyreactivity”.
The result for “QVQLLESGGGLVQAGGSLRLSCAASGITFAKYAMGWYRQAPGKEREFVAAISTSGGSTYYADSVKGRFTISRDNAKNTVYLQMNSLKPEDTAVYYSNVETYIWYFLRYYNYWGQGTQVTVSS” reads “high polyreactivity”; that for “QVQLLESGGGLVQAGGSLRLSCAASGITLYRYTMGWYRQAPGKEREFVAAISRSGGSTYYADSVKGRFTLSRDNAKNTVYFQMKSLKPDDTAVYYCAAPWYEKTTRPYGSWGQGTQVTVSS”, “high polyreactivity”; that for “QVQLLESGGGLVQAGGSLRLSCAASGLIFERYAMGWYRQAPGKERELVAAITRRGGSTYDADSVKGRFTISRDNAKNTVYFQMNSLKPEDTAVNYCAAGRPQDTEFDYWGLGTQVTVSS”, “high polyreactivity”.
The result for “QVQLLESGGGLVQAGGSLRLSCAASGLIFGENAMGWYRQAPGKERELVAAISRRAGITYYADSVKGRFTISRDNAKNTVYLQMNSLKPEDTAVYYCAAQYYLYRSRFDYWGQGTQVTVSS” reads “high polyreactivity”; that for “QVQLLESGGGLVQAGGSLRLSCAASGLIFRGNDMGWYRPAPGKERELVAGINSSGSTNYADSVKGRFTISRDNAKNTVYLQMNSLKPEDTAVYDCAARAIVSFDYWGQGTQVTVSS”, “low polyreactivity”.
Regarding “QVQLLESGGGLVQAGGSLRLSCAASGLIVSEYAMGWYRQAPGKERELVAAIRSDGGSTYYADSVKGRFTISRDNAKNTVYLQMNSLKPEDTAVYYCNAPYRRSAKFRRYGYDYWGQGTQVTVSS”, the “polyreactivity (PSR sort gate)” value is reported as “high polyreactivity”.
With “QVQLLESGGGLVQAGGSLRLSCAASGLTFPLYAMGWYRQAPGKERELVAAINWSGGSTYYADSVKGRFTISRDKAKNTVYLQMNSLKPEDTAVYYCAAARSSLYYYWGQGTQVTVSS”, the “polyreactivity (PSR sort gate)” value was “high polyreactivity”.
On to “QVQLLESGGGLVQAGGSLRLSCAASGLTYAYNTMGWYRQAPGKERELVADISWSGGRTYYADSVKGRFTISRDNAKNTVYLQMNSLKPEDTAVYYCAAEFWHQYGAYDYWGQGTQVTVSS”, for which the “polyreactivity (PSR sort gate)” value is “low polyreactivity”.
With “QVQLLESGGGLVQAGGSLRLSCAASGNTFTYYAMGWYRQAPGKERELVAAISDDGNTNYADSVMGRFTISRDNAKKTVYSQMNSLKPEDTAVYYCNADSYPSLNKRGYDYWGQGTQVTVSS”, the “polyreactivity (PSR sort gate)” value was “low polyreactivity”.
The result for “QVQLLESGGGLVQAGGSLRLSCAASGRIFGSNAMGWYRQAPGKERELVAAITRGGSTNYADSVKGRFTISRDNAKNTVYLQMNSLKPEDTAVYYCAAVPFGEVDYWGQGTQVTVSS” reads “high polyreactivity”; that for “QVQLLESGGGLVQAGGSLRLSCAASGRIFTPYAMGWYRQAPGKERELVAVIRDGSTYYADSVKGRFTISRDNAKNTVYLQMNSLKPEDTAVYYCAADVGYSPYFFGGTRYYKYDYWGQGTQVTVSS”, “low polyreactivity”; that for “QVQLLESGGGLVQAGGSLRLSCAASGRIFVKYAMGWYRQAPGKERELVAAISKSGGSTYYADSVKGRFTISRDNAKNTVYLQMNSLKPEDTAVYYCAPRSRDQYSGSYRLDYWGQGTQVTVSS”, “low polyreactivity”.
Regarding “QVQLLESGGGLVQAGGSLRLSCAASGRIFVVNAMGWYRQAPGKERELVATITRGASTYADSVKGRFTISRDNAKNTVYLQMNSLKPEDTAVYYCAAAKRPQVVRYDWTKLEYWGQGTQVTVSS”, the “polyreactivity (PSR sort gate)” value is “high polyreactivity”.
As for “QVQLLESGGGLVQAGGSLRLSCAASGRIFVYYAMGLYRKAPGKERELVATITFGGGSTYYADSVKGRFTISRDNAKNNVYLQMNSLKQEDTAVYYCNAPGFAWYTTKYDYCGQGTQVTVSS”, the “polyreactivity (PSR sort gate)” value is recorded as “low polyreactivity”.
As for “QVQLLESGGGLVQAGGSLRLSCAASGRTFRYYAMGWYRQAPGKERELVAAITANGGSTYYADSVKGRFTISRDNAKNTVYLQMNSLKPEDTAVYYCAAKYNTKLYYWGQGTQVTVSS”, the entry is “high polyreactivity”.
The result for “QVQLLESGGGLVQAGGSLRLSCAASGRTFYRYAMGWYRKAPGKETELVAANSSSGGSTYYADSVKGRFTISRDNAKNTVYLQMNSLKPEDTAVYYCAAQYFLFTTPYRYAPRMGYWGQGTQVTVSS” reads “high polyreactivity”.
As for “QVQLLESGGGLVQAGGSLRLSCAASGSIFGINAMGWYRQAPGKERELVAAISGSTSRTYYADSVKGRFTISRDNAKNTVYLQMNSLKPEDTAVYYCAVVGLRSVTRRSYYWGQGNQVTVSS”, the entry is “high polyreactivity”; as for “QVQLLESGGGLVQAGGSLRLSCAASGSIFNRYAMGWYRQAPGKERELVAAISSTGSTYYADSVKGRFTISRDNAKNTVYLQMNSLKPEDTAVYYCNAEATHDWLRVDTYEDWGQGTQVTVSS”, “low polyreactivity”.
“QVQLLESGGGLVQAGGSLRLSCAASGSIFYRYAMGWYRQAPGKEREFVAAISGSGSSTYYADSVKGRFTISRDNAKNTVYLQMNSLKPEDTAVYYCAARWRYYGSFDYWGQGTQVTVSS”: the “polyreactivity (PSR sort gate)” value is listed as “high polyreactivity”.
Turning to “QVQLLESGGGLVQAGGSLRLSCAASGSIFYWNAMGWYIQARGKERELLAAINYSGDSTYDADSVKGAFTISRDNAKNTVYLQMNSLKPEDTAVYYCNFDYWGQGTQVTVSS”, the “polyreactivity (PSR sort gate)” value is given as “low polyreactivity”.
The result for “QVQLLESGGGLVQAGGSLRLSCAASGSTFDDNAMGWYRQAPGKERELVAGISDGDDSTNYADSVKGRFTISRDNAKNTVYLQMNRLKPEDTAVYYCNARYVRTYGVRFGYDYWGQGTQVTVSS” reads “low polyreactivity”; that for “QVQLLESGGGLVQAGGSLRLSCAASGSTFDSYEMGWYRQAPGKERELVAGISYSSDRTYYADSVKGRFTISRDNAKNTVYLQMNSLKPEDTAVYYCAKDHTGTVQYPLDYWGQGTQVTVSS”, “low polyreactivity”.
On to “QVQLLESGGGLVQAGGSLRLSCAASGSTFKSYAMGWYRQAPGKERELVAAISGRGGSTYYADSVKGRVTISRDNAKNTVYLQMNSLKPEDTAVYYCNALGSQRYDYWGQGTQVTVSS”, for which the “polyreactivity (PSR sort gate)” value is given as “high polyreactivity”.
For the sequence “QVQLLESGGGLVQAGGSLRLSCAASGSTFRSYAMGWYRQATGKERELVAAISGRGGNTYYADSVKGRFTISRDNAKNTVYLQMNSLKPEDTAVYYCARKTVYYGSDYWGQGTQVTVSS”, the “polyreactivity (PSR sort gate)” value is given as “high polyreactivity”.
Take “QVQLLESGGGLVQAGGSLRLSCAASGSTFTKYDMGWYRQAPGKERELVAAIRSGGDTNYADSVKGRFTISLDNAKNTVYLQMNSLNPEDTAVYYLAAARGPTNHTSYPWYEYDYWGQCTQVTVSS”: the “polyreactivity (PSR sort gate)” value is listed as “low polyreactivity”.
In the case of “QVQLLESGGGLVQAGGSLRLSCAASGSTIVSYDMGWYRQAPGKERELVAAITYDGDSTYYADSVKGRFTISRDNAKNTVYLQMNSLKPEDTAVYYCAAEPGEDLKFRGGFEYWGQGTQVTVSS”, the “polyreactivity (PSR sort gate)” value is given as “low polyreactivity”.
As for “QVQLLESGGGLVQAGGSLRLSCAASGYTFQIKAMGWYRQAPGKERELVAAITSGGRTYYADSVKGLFTISRDNAKNTVYLQMNSLKPEDTAVYYCNKVPRRGVDYWGQGTQVTVSS”, the entry is “low polyreactivity”.
As for “QVQLLESGGGLVQAGGSLRLSCAPSGRTFVFNGRGWYRPATAKERELVAAINRSGGSTYYAVSVKGRFTISRDNGKNTVYLQMNSLKPEDTAVYYCLIQHNGLGYWGQGTQVTVSS”, the entry is “low polyreactivity”.
As for “QVQLLESGGGLVQAGGSLRLSCAPSGSTFGYYAMGWYRPAPGKERELVAAITSGGRTYYADSVKGRFTISRDNAKNTVYLQMISLKPEETAVYYFAAIYRTYNKFDYWGQGTQVTVSS”, the entry is “high polyreactivity”; as for “QVQLLESGGGLVQAGGSLRLSCASSGRTFLTNAMGWYRQAPGKERELVAVITDGDTTYADSVKGRFTISRDNAKNTVYLLMNSLKPEDSAVYYCAADENYWSAGYDSWGLGTQVTVSS”, “low polyreactivity”.
In the case of “QVQLLESGGGLVQAGGSLRLSCDASGFTFVAYAMGWYRQAPGKERELVAVISRGGSTYYADSVKGRFTISRDNAKNTVYLQMNSLKPEDTAVYYCAATFIHSYGKFFYWGQGTQVTLSS”, the “polyreactivity (PSR sort gate)” value is on record as “low polyreactivity”.
For the sequence “QVQLLESGGGLVQAGGSLRLSCSASGITFFVYDMGWYRQAPGKERDLVAAITWAGDSTYYADSVKGRFTISRDNAKNTVYLQMNSLKPEDTAVYYCAAQFDVYYSRQPYDYNRSGYWGQGTQVTVSS”, the “polyreactivity (PSR sort gate)” value is given as “low polyreactivity”.
As for “QVQLLESGGGLVQAGGSLRLSFAASGLTLGAYAMVWYRQAPGKERELVAAITNGGSTDYADSVKGRFTISRDNAKITVYLQMNSLKPEDTAVYYCAKDISRPDRGMDYWGQGTQVTVSS”, the entry is “low polyreactivity”; as for “QVQLLESGGGLVQAGGSLRLTCAASGSTFPDYAMGWYRQAPGKEREFVASITWSDGSTYYADSVKGRFTISRDNAKNSVYLQMNRLKQEDTAVYYCNADYVYYYIPVVYEYDYWGQGTQVTVSS”, “high polyreactivity”; as for “QVQLLESGGGLVQAGGTLPLSCAASGRTFKYYAMGWYRQAPGKERELVAGISSTGRTNYADSVKGRFTISRDNAKNTVYLEMNSLKPEDTAVYYCNAERKSFGKFVYWGQGTLVTVSS”, “high polyreactivity”.
As for “QVQLLESGGGLVQAGGTLRLSCAASGSTFAKYGMGWYRQAPGKERELVAAISRSGGRTYYADSVKGRFTISRDNAKNTVYLQMNSLKPEDTAVYYCATDGIRLTRHRDYDYWGQGTQVTVSS”, the entry is “low polyreactivity”.
As for “QVQLLESGGGLVQSGGSLRVSCAASGRNFGRYDMGWYRQAPGKERELVATISSRGGNTYYADSVKGRVTISRDNAMNTVYLQMNSLTPDDTAVYYCAAQTYKWYDWGQGTQVTVSS”, the “polyreactivity (PSR sort gate)” value was “high polyreactivity”.
The result for “QVQLLESGGGLVQSGGSLRVSCAASGSTFYAYSMGWYRQAPGKERELVAALDSGGSTYADSVKGRFPISRANAKHTVYLQMNSLKPEETAVYYCAADLITRSDYWWTGWIWEYDYWGQGTQVTVSS” reads “low polyreactivity”.
The result for “QVQLLESGVGLVQAGGSLRLSCAASGFTFGYYAMGWYRQAPGKETELVAAISSSDGSTYYADSVKGRFTISRDNAKNTVYLQMNSLKPEDTAVYYCAAEYYSAVYIDEYWYDYWGQGTQVTVSS” reads “high polyreactivity”; that for “QVQLLESGVGLVQAGGSLRLSCAASGNTFYHYAMGLYRQAPGKERELVAAISLSGGSTYYADSVKGRFTISRDNAKNTVYLQMNSLKPEDTAVYYCAADIFYYSSSYGYWGQGTQVTVST”, “low polyreactivity”.
